Values belong to the substance of their own block, whether it stands above or below them.
Experiments:
[1] = target: YRDC_(ΔL222), GAMOS-associated variant of the ΔN43 construct (human); test: native gel or EMSA
[2] = target: YRDC_(ΔL222), GAMOS-associated variant of the ΔN43 construct (human); test: mass photometry
[3] = target: human YRDC lacking the N-terminal 43 residues (ΔN43 construct) (human); test: native MS
[4] = target: human YRDC lacking the N-terminal 43 residues (ΔN43 construct) (human); test: native gel or EMSA
[5] = target: human YRDC lacking the N-terminal 43 residues (ΔN43 construct) (human); test: mass photometry
[6] = target: YRDC_(A41V), GAMOS-associated variant of the ΔN43 construct (human); test: native gel or EMSA
[7] = target: YRDC_(A41V), GAMOS-associated variant of the ΔN43 construct (human); test: mass photometry
[8] = target: YRDC_(I178T), GAMOS-associated variant of the ΔN43 construct (human); test: mass photometry

- stoichiometry N [1]: 2
- tetramer fraction [2]: 27%
- trimer fraction [2]: 44%
Substance: YRDC_(ΔL222), GAMOS-associated variant of the ΔN43 construct (enzyme)

- stoichiometry N [3]: 2
- stoichiometry N [4]: 2
- stoichiometry N [5]: 2
Substance: human YRDC lacking the N-terminal 43 residues (ΔN43 construct) (enzyme)

- stoichiometry N [6]: 2
- tetramer fraction [7]: 24%
- trimer fraction [7]: 28%
Substance: YRDC_(A41V), GAMOS-associated variant of the ΔN43 construct (enzyme)

- dimer fraction [8]: 19%
Substance: YRDC_(I178T), GAMOS-associated variant of the ΔN43 construct (enzyme)

Source: doi:10.64898/2025.12.03.692196
